Assay results as given in patent publication US20260055148A1 (USTAV ORGANICKE CHEMIE A BIOCHEMIE AV CR V V I, published 2026).

Tests used:
His-C3d N1134A (human) [1] = target: His-C3d N1134A (human) (UniProt P01024); assay: SPR BIAcore T200, biotinylated ISG65-Avi immobilised, C3d N1134A as analyte
His-C3d N1134A (human) [2] = target: His-C3d N1134A (human) (UniProt P01024); assay: SPR BIAcore T200, biotinylated ISG65-Avi immobilised, C3d N1134A as analyte; koff1
His-C3d N1134A (human) [3] = target: His-C3d N1134A (human) (UniProt P01024); assay: SPR, relative to wild type C3d
His-C3d N1134A (human) [4] = target: His-C3d N1134A (human) (UniProt P01024); assay: SPR BIAcore T200, biotinylated ISG65-Avi immobilised, C3d N1134A as analyte; kon1
[5] = target: C3b (human complement C3b) (human, UniProt P01024 23-667; P01024 749-1663); assay: cell-based or functional assay
Sequence of C3b (human complement C3b) (P01024 23-667 limits assumed, chain 1 of 2): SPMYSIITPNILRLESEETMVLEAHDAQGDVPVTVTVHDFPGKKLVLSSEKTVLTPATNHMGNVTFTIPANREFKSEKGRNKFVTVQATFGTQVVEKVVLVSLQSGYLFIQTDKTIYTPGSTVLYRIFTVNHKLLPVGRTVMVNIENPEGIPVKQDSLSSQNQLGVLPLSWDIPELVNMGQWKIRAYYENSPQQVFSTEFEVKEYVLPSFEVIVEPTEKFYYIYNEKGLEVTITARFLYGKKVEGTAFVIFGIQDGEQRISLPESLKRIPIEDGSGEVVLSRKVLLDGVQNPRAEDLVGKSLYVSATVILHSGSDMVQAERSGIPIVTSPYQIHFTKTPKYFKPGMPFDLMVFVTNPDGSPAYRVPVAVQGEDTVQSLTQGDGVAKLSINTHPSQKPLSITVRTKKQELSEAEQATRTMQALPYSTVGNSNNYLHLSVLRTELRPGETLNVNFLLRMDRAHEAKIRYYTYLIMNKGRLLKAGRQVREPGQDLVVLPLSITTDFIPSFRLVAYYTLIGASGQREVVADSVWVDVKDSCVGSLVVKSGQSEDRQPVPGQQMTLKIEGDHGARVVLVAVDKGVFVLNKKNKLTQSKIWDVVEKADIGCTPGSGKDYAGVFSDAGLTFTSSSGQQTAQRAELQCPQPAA
Sequence of C3b (human complement C3b) (P01024 749-1663 limits assumed, chain 2 of 2): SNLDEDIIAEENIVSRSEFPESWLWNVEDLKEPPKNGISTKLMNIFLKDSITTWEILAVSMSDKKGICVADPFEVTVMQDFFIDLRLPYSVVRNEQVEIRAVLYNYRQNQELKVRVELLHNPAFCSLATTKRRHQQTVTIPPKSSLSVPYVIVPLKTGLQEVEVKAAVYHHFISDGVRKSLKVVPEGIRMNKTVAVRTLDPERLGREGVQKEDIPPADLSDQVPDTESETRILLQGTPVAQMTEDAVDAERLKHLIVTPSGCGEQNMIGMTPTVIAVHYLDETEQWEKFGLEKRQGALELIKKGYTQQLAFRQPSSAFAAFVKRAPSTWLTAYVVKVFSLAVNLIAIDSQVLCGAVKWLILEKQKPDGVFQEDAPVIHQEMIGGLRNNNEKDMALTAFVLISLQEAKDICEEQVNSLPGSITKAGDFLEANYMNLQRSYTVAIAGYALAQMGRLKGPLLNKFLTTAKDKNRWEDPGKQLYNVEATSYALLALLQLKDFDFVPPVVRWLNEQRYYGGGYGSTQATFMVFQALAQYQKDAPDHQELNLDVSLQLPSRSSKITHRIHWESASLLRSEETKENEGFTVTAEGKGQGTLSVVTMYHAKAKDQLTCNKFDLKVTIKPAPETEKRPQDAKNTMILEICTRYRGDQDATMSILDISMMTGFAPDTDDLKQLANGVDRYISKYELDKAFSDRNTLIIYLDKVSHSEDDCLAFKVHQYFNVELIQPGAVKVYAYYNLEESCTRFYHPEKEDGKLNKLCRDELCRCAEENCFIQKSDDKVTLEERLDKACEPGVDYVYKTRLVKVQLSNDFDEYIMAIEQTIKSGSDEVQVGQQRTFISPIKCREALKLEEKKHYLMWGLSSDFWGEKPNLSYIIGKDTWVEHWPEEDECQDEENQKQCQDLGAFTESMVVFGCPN

[6] = target: T1, His-C3d-Avi, biotinylated (human complement C3d with N-terminal His-tag and C-terminal Avi-tag) (human, UniProt P01024 996-1303, site-specific biotinylation of the C-terminal Avi-tag); assay: SPR BIAcore T200, biotinylated C3d-Avi immobilised, ISG65 mutant as analyte
T1 construct: domain: C3d; SPR ligand for the ISG65 mutants; not shown: N-terminal His-tag (pET15b); C-terminal Avi-tag
T1 sequence (P01024 996-1303 limits assumed): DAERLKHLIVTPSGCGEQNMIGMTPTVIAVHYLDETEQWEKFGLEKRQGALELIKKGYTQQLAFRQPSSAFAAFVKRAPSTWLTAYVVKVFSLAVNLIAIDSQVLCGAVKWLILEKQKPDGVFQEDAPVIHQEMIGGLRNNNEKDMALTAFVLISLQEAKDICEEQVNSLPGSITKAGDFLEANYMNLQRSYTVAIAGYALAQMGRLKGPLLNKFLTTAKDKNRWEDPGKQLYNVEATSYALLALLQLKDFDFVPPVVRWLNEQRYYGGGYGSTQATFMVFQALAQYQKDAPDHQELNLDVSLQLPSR

[7] = target: T1, His-C3d-Avi, biotinylated (human …); assay: SPR, relative to wild type ISG65
[8] = target: T1, His-C3d-Avi, biotinylated (human …); assay: SPR BIAcore T200, biotinylated C3d-Avi immobilised, ISG65 mutant as analyte; kon1
[9] = target: T1, His-C3d-Avi, biotinylated (human …); assay: SPR BIAcore T200, biotinylated C3d-Avi immobilised, ISG65 mutant as analyte; koff1
[10] = target: T1, His-C3d-Avi, biotinylated (human …); assay: SPR BIAcore T200, biotinylated C3d-Avi immobilised, ISG65 mutant as analyte; overall KD of a two-step fit (kon1, kon2, koff1, koff2)
[11] = target: T1, His-C3d-Avi, biotinylated (human …); assay: SPR BIAcore T200, biotinylated C3d-Avi immobilised, ISG65 mutant as analyte; koff1; koff1, first step of the two-step fit
[12] = target: T1, His-C3d-Avi, biotinylated (human …); assay: SPR BIAcore T200, biotinylated C3d-Avi immobilised, ISG65 mutant as analyte; kon1; kon1, first step of the two-step fit

Sequence of His-C3d N1134A (human) (P01024 996-1303, stated change not applied): as the sequence (P01024 996-1303 limits assumed) above

Row | Molecule | koff2 [6] [s⁻¹] | C3d binding (%) [7] [%] | Kd [10] [µM] | koff [11] [s⁻¹] | kon [12] [M⁻¹ s⁻¹] | further results
1 | His-ISG65 18-363-Avi, biotinylated at the C-terminal Avi-tag (receptor) |  |  |  |  |  | Kd (His-C3d N1134A (human) [1]): 0.0286 µM; koff (His-C3d N1134A (human) [2]): 0.0542 s⁻¹; ISG65 binding (%) (His-C3d N1134A (human) [3]): 25%; kon (His-C3d N1134A (human) [4]): 1.89e+06 M⁻¹ s⁻¹
2 | ISG65 M2 (thermostable mutant of the ISG65 extracellular domain 18-363 with N-terminal His-tag) (receptor) MGSSHHHHHHSSGLVPRGSHMLLVIGSEDNRVPGDKKLTKEGAAALCKMKHLADKVAKERSQELKDRTQNFAGYIEFELYRIDYWLEKLNGPKGRKDGYAKLSDSDIKKVKEIFEKAKDGITKQLPEAKKAAEEAEKLHQEVKEAAEKARGQDLDDDTAKSTGLYRVLNWYCITKEERHNATPNCDGIQFRKHYLSVNRSAIDCSSTSYEENYDWSANALQVALNSWEDKKPKKLESAGSDKNCNIGQSSESHPCTMTEEWQTHYKETIEKLRELEEAYQRGKKAHDDMLGYANTAYAVNTKVEQEKPLSEVIAAAKEAGKKGAKIIIPAAAPATPTNSTKNDDSAPTEHVDRGIATNETQVEVGID |  |  |  |  |  | relative AP50 of human plasma, day 0 [5]: 15 fold
3 | His-ISG65 18-363 T297A (receptor, also called ISG65 T297A) MGSSHHHHHHSSGLVPRGSHMLLVIGSEDNRVPGDKKLTKEGAAALCKMKHLADKVAKERSQELKDRTQNFAGYIEFELYRIDYWLEKLNGPKGRKDGYAKLSDSDIEKVKEIFNKAKDGITKQLPEAKKAGEEAGKLHTEVKKAAENARGQDLDDDTAKSTGLYRVLNWYCITKEERHNATPNCDGIQFRKHYLSVNRSAIDCSSTSYEENYDWSANALQVALNSWEDVKPKKLESAGSDKNCNIGQSSESHPCTMTEEWQTPYKETVEKLRELEDAYQRGKKAHDAMLGYANTAYAVNAKVEQEKPLTEVIAAAKEAGKKGAKIIIPAAAPATPTNSTKNDDSAPTEHVDRGIATNETQVEVGID | 0.002 | 15 |  |  |  | Kd [6]: 0.182 µM; kon [8]: 171000 M⁻¹ s⁻¹; koff [9]: 0.05 s⁻¹
4 | His-ISG65 18-363 Y70A (receptor, also called ISG65 Y70A) MGSSHHHHHHSSGLVPRGSHMLLVIGSEDNRVPGDKKLTKEGAAALCKMKHLADKVAKERSQELKDRTQNFAGAIEFELYRIDYWLEKLNGPKGRKDGYAKLSDSDIEKVKEIFNKAKDGITKQLPEAKKAGEEAGKLHTEVKKAAENARGQDLDDDTAKSTGLYRVLNWYCITKEERHNATPNCDGIQFRKHYLSVNRSAIDCSSTSYEENYDWSANALQVALNSWEDVKPKKLESAGSDKNCNIGQSSESHPCTMTEEWQTPYKETVEKLRELEDAYQRGKKAHDAMLGYANTAYAVNTKVEQEKPLTEVIAAAKEAGKKGAKIIIPAAAPATPTNSTKNDDSAPTEHVDRGIATNETQVEVGID | 0.58 | 36 | 0.0782 | 0.14 | 118000 | 
5 | His-ISG65 18-363 W211A (receptor, also called ISG65 W211A) MGSSHHHHHHSSGLVPRGSHMLLVIGSEDNRVPGDKKLTKEGAAALCKMKHLADKVAKERSQELKDRTQNFAGYIEFELYRIDYWLEKLNGPKGRKDGYAKLSDSDIEKVKEIFNKAKDGITKQLPEAKKAGEEAGKLHTEVKKAAENARGQDLDDDTAKSTGLYRVLNWYCITKEERHNATPNCDGIQFRKHYLSVNRSAIDCSSTSYEENYDASANALQVALNSWEDVKPKKLESAGSDKNCNIGQSSESHPCTMTEEWQTPYKETVEKLRELEDAYQRGKKAHDAMLGYANTAYAVNTKVEQEKPLTEVIAAAKEAGKKGAKIIIPAAAPATPTNSTKNDDSAPTEHVDRGIATNETQVEVGID | 0.39 | 42 | 0.0668 | 0.16 | 320000 | 
